Test results from patent publication US20120316071A1 (published 2012).
Values belong to the binder of their own block, whether it stands above or below them.

How the values were obtained:
[1] = molecular target: T1, rHuman ErbB2/Fc Chimera, CF (human, UniProt P04626 23-652); test: ECL Multispot (MSD) assay; antigen spotted on plate, Fab in solution;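 note: fab bound 1 h at 20 °C, detected by TAG-labelled antibody electrochemiluminescence, signal relative to each well's blank, ratio of 4 or more marks a hit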
T1 construct: Bought from R&D Systems; also called human epidermal growth factor 2 receptor; not shown: Fc of the bought chimera

[2] = molecular target: T2, rHuman EGF R/Fc Chimera, CF (human, UniProt P00533 25-645); test: as above
T2 construct: Bought from R&D Systems; also called epidermal growth factor receptor; not shown: Fc of the bought chimera

[3] = molecular target: T3, rHuman HGF R/c-MET/Fc Chimera, CF (human, UniProt P08581 25-932); test: as above
T3 construct: Bought from R&D Systems; also called HGF R/Fc; hepatocyte growth factor receptor; not shown: Fc of the bought chimera
T3 sequence (P08581 25-932, change not shown): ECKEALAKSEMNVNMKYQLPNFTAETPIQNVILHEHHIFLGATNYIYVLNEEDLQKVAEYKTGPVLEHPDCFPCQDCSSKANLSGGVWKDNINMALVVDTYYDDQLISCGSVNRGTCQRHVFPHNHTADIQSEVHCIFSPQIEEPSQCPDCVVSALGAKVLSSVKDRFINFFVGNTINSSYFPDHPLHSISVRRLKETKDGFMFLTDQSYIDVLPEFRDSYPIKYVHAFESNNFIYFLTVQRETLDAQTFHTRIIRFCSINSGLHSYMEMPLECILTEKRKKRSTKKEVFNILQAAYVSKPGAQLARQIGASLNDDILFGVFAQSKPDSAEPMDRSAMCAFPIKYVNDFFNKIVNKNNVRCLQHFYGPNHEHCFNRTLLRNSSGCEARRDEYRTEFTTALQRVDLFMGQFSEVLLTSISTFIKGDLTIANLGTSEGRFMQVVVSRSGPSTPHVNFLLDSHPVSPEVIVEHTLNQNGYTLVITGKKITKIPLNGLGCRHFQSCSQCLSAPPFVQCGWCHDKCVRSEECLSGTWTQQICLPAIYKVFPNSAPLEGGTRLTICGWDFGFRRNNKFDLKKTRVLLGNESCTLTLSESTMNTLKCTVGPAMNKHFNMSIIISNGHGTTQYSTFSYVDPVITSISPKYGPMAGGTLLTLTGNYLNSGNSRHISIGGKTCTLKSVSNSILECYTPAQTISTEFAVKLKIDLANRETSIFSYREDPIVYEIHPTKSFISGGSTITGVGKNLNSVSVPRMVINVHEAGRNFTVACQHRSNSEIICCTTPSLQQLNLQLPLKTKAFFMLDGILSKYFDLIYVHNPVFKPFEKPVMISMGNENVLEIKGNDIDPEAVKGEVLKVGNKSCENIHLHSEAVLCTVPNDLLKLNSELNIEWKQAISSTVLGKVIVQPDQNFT

[4] = molecular target: T4, rHuman Notch-1/Fc Chimera, CF (human, UniProt P46531 19-526); test: as above
T4 construct: Bought from R&D Systems; not shown: Fc of the bought chimera

[5] = molecular target: T5, rHuman CD44/Fc Chimera, CF (human, UniProt P16070 21-220); test: as above
T5 construct: Bought from R&D Systems; not shown: Fc of the bought chimera

[6] = molecular target: T6, rHuman IGF-1 sR, (IGF-1 sR), CF (human, UniProt P08069 31-932); test: as above
T6 construct: Bought from R&D Systems; also called insulin-like growth factor-1 soluble receptor

[7] = molecular target: T7, rHuman Erythropoietin R/Fc Chimera, CF (human, UniProt P19235 25-250); test: as above
T7 construct: Bought from R&D Systems; also called EPO R; EPO R/Fc; not shown: Fc of the bought chimera
T7 sequence (looked up): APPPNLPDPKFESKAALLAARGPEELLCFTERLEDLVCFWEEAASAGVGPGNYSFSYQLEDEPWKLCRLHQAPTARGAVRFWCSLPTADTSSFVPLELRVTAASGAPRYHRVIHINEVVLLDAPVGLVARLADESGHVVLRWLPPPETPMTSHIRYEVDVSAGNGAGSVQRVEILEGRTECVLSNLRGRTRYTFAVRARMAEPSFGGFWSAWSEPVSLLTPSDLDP

Recombinant Human DLL4 = molecular target: T8, Recombinant Human DLL4 (human, UniProt Q9NR61 27-524); test: as above
T8 construct: Bought from R&D Systems; also called delta-like protein 4; rHuman DLL4

[8] = molecular target: T9, Recombinant Human DLL4 (R&D Systems Cat#1506-D4/CF) (human, UniProt Q9NR61 27-524); test: ECL (MSD) multispot binding assay, DLL4 immobilised, Fab in solution
T9 construct: Bought protein (R&D Systems Cat#1506-D4/CF), immobilised on the MSD plate; also called delta-like protein 4; rHuman DLL4

[9] = molecular target: T10, Recombinant Human DLL4 (R&D Systems Cat#1506-D4/CF) (human, UniProt Q9NR61 27-524); test: ECL 96-well plate assay; 0.02 uM Fab, plate coated with 30 ug/mL DLL4
T10 construct: Bought recombinant protein; also called delta-like protein 4; rHuman DLL4

[10] = molecular target: T10, Recombinant Human DLL4 (R&D Systems …); test: ECL 96-well plate assay; 0.004 uM Fab, plate coated with 15 ug/mL DLL4

B4: Fab VH1-46_IGHD6-6*01_IGHJ1*01 S102A/S103P/S104F (APF) & L6_IGKJ1*01 R91Q (Fab, V domains shown)
VH: QVQLVQSGAEVKKPGASVKVSCKASGYTFTSYYMHWVRQAPGQGLEWMGIINPSGGSTSYAQKFQGRVTMTRDTSTSTVYMELSSLRSEDTAVYYCAREEYAPFSAEYFQHWGQGTLVTVSS
VL: EIVLTQSPATLSLSPGERATLSCRASQSVSSYLAWYQQKPGQAPRLLIYDASNRATGIPARFSGSGSGTDFTLTISSLEPEDFAVYYCQQQSNWPPWTFGQGTKVEIKR
notes: Fab with CH1 plus His6/Flag tags and kappa CL from the expression plasmids; also called APF & R91Q
ECL signal [8]: 817
Signal/Blank [8]: 3.1

B6: Fab VH1-46_IGHD6-6*01_IGHJ1*01 S102A/S103P/S104F (APF) & L6_IGKJ1*01 S92N (Fab, V domains shown)
VH: QVQLVQSGAEVKKPGASVKVSCKASGYTFTSYYMHWVRQAPGQGLEWMGIINPSGGSTSYAQKFQGRVTMTRDTSTSTVYMELSSLRSEDTAVYYCAREEYAPFSAEYFQHWGQGTLVTVSS
VL: EIVLTQSPATLSLSPGERATLSCRASQSVSSYLAWYQQKPGQAPRLLIYDASNRATGIPARFSGSGSGTDFTLTISSLEPEDFAVYYCQQRNNWPPWTFGQGTKVEIKR
notes: Fab with CH1 plus His6/Flag tags and kappa CL from the expression plasmids; also called APF & S92N
ECL signal [8]: 2090

B7: Fab VH1-46_IGHD6-6*01_IGHJ1*01 S102A/S103P/S104F/H111F (APFF) & L6_IGKJ1*01 N93H (Fab, V domains shown)
VH: QVQLVQSGAEVKKPGASVKVSCKASGYTFTSYYMHWVRQAPGQGLEWMGIINPSGGSTSYAQKFQGRVTMTRDTSTSTVYMELSSLRSEDTAVYYCAREEYAPFSAEYFQFWGQGTLVTVSS
VL: EIVLTQSPATLSLSPGERATLSCRASQSVSSYLAWYQQKPGQAPRLLIYDASNRATGIPARFSGSGSGTDFTLTISSLEPEDFAVYYCQQRSHWPPWTFGQGTKVEIKR
notes: Fab with CH1 plus His6/Flag tags and kappa CL from the expression plasmids; also called APFF & N93H
ECL signal [8]: 14700

B8: Fab VH1-46_IGHD6-6*01_IGHJ1*01 S102A/S103P/S104F (APF) & L6_IGKJ1*01 R91P (Fab, V domains shown)
VH: QVQLVQSGAEVKKPGASVKVSCKASGYTFTSYYMHWVRQAPGQGLEWMGIINPSGGSTSYAQKFQGRVTMTRDTSTSTVYMELSSLRSEDTAVYYCAREEYAPFSAEYFQHWGQGTLVTVSS
VL: EIVLTQSPATLSLSPGERATLSCRASQSVSSYLAWYQQKPGQAPRLLIYDASNRATGIPARFSGSGSGTDFTLTISSLEPEDFAVYYCQQPSNWPPWTFGQGTKVEIKR
notes: Fab with CH1 plus His6/Flag tags and kappa CL from the expression plasmids; also called APF & R91P
ECL signal [8]: 1280
Signal/Blank [8]: 4.7

Second part, the binder after the results:

ECL signal [1]: 345
ECL signal [2]: 517
ECL signal [3]: 380
ECL signal [4]: 331
ECL signal [5]: 420
ECL signal [6]: 404
ECL signal [7]: 437
ECL signal (Recombinant Human DLL4): 133000
B1: Fab VH1-46_IGHD6-6*01_IGHJ1*01 S102A/S103P/S104F/H111F (APFF) & L6_IGKJ1*01 S28Q (Fab, V domains shown)
VH: QVQLVQSGAEVKKPGASVKVSCKASGYTFTSYYMHWVRQAPGQGLEWMGIINPSGGSTSYAQKFQGRVTMTRDTSTSTVYMELSSLRSEDTAVYYCAREEYAPFSAEYFQFWGQGTLVTVSS
VL: EIVLTQSPATLSLSPGERATLSCRASQQVSSYLAWYQQKPGQAPRLLIYDASNRATGIPARFSGSGSGTDFTLTISSLEPEDFAVYYCQQRSNWPPWTFGQGTKVEIKR
notes: Fab made in E. coli; the variable domains were cloned into Plasmid A (CH1, His and Flag tags) and Plasmid C (kappa CL); also called APFF / S28Q

ECL signal [8]: 704
B2: Fab VH1-46_IGHD6-6*01_IGHJ1*01 S102A/S103P/S104F/H111F (APFF) & L6_IGKJ1*01 N93Q (Fab, V domains shown)
VH: QVQLVQSGAEVKKPGASVKVSCKASGYTFTSYYMHWVRQAPGQGLEWMGIINPSGGSTSYAQKFQGRVTMTRDTSTSTVYMELSSLRSEDTAVYYCAREEYAPFSAEYFQFWGQGTLVTVSS
VL: EIVLTQSPATLSLSPGERATLSCRASQSVSSYLAWYQQKPGQAPRLLIYDASNRATGIPARFSGSGSGTDFTLTISSLEPEDFAVYYCQQRSQWPPWTFGQGTKVEIKR
notes: Fab with CH1 plus His6/Flag tags and kappa CL from the expression plasmids; also called APFF & N93Q

Signal/Noise [9]: 59.7
Signal/Noise [10]: 82.4
B3: Fab VH1-46_IGHD6-6*01_IGHJ1*01 S103P & L6_IGKJ1*01 (Fab, V domains shown)
VH: QVQLVQSGAEVKKPGASVKVSCKASGYTFTSYYMHWVRQAPGQGLEWMGIINPSGGSTSYAQKFQGRVTMTRDTSTSTVYMELSSLRSEDTAVYYCAREEYSPSSAEYFQHWGQGTLVTVSS
VL: not shown
notes: Fab; heavy chain CDR3 NNK mutant of the parent; Constant parts as for the parent Fab

ECL signal [8]: 1380
B5: Fab VH1-46_IGHD6-6*01_IGHJ1*01 S102A/S103P/S104F/H111F (APFF) & L6_IGKJ1*01 N93Y (Fab, V domains shown)
VH: QVQLVQSGAEVKKPGASVKVSCKASGYTFTSYYMHWVRQAPGQGLEWMGIINPSGGSTSYAQKFQGRVTMTRDTSTSTVYMELSSLRSEDTAVYYCAREEYAPFSAEYFQFWGQGTLVTVSS
VL: EIVLTQSPATLSLSPGERATLSCRASQSVSSYLAWYQQKPGQAPRLLIYDASNRATGIPARFSGSGSGTDFTLTISSLEPEDFAVYYCQQRSYWPPWTFGQGTKVEIKR
notes: Fab with CH1 plus His6/Flag tags and kappa CL from the expression plasmids; also called APFF & N93Y
